Columns and labels:
[1] = molecular target: heterochromatin protein 1 gamma (HP1γ) (Homo sapiens (Human)) (UniProt Q13185); test: cell-based or functional assay
[2] = tested on: silent GFP reporter in HeLa TI-C cell clones; test: GFP reactivation in TI-C silent cell clones (FACS); assay type: cell-based, human; details: TSA treatment, FACS after 24 hours, vs DMSO control
Text: Cells. HeLa cell populations containing silent GFP genes, as described by Katz et al., 2007, J. Virol. 81:2592-2604, were utilized. TI-C cell clones were isolated by cell sorting as described by Katz et al., 2007, J. Virol. 81:2592-2604.
Analysis of GFP expression. GFP expression was quantitated by FACScan as described previously (Greger et al., 2005, J. Virol. 79:4610-4618; Katz et al., 2007, J. Virol. 81:2592-2604; Poleshko et al., 2008, J. Virol. 82:2313-2323).
Evidence for position-independent roles for HDAC1 and Daxx in retroviral reporter gene silencing. To determine if the integration sites of the retroviral DNA are determinants for the participation of specific host factors that control epigenetic silencing, a series of TI-C cell clones was examined. These clones were derived from a pool of cells in which the average GFP copy number was ca. 1 as measured by quantitative real-time PCR (Katz et al., 2007, J. Virol. 81:2592-2604; Poleshko et al., 2008, J. Virol. 82:2313-2323). […] As with the TI-C cell population, transfection with the HDAC1 siRNA pool phenocopied the TSA treatment (compare FIGS. 4A and B). Based on analyses of these clones, it was concluded that HDAC1 and, in most cases, Daxx are required for the maintenance of silencing at independent loci, but the integration site may modulate the extent of reactivation.

Sequence of UniProt Q13185 (Q13185 whole entry): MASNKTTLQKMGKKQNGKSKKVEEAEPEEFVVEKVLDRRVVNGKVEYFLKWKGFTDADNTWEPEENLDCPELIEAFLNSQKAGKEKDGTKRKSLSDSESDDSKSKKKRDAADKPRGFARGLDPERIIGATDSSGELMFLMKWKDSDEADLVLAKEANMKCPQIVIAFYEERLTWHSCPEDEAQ

## dominant negative form of HP1 (dnHP1) (from UniProt P83916 104-185)
[1]
  GFP-positive cells at 5 days postinfection (FACS) (% GFP-positive cells): 24

## CC(/C=C/C(=O)NO)=C\[C@@H](C)C(=O)c1ccc(N(C)C)cc1 [TSA, trichostatin A]
[2]
  GFP reactivation in TI-C cell clones: induced GFP reactivation, but to various degrees

— patent publication US20110172107A1, “ASSAY FOR IDENTIFYING AGENTS THAT MODULATE EPIGENETIC SILENCING, AND AGENTS IDENTIFIED THEREBY” (FOX CHASE CANCER CENTER, priority 2008, published 2011)
